Measurements taken from patent US20180155451A1 (published 2018).

T1: FcγRIIb (human, UniProt P31994 43-217)
T1 construct: extracellular domain; also called FcgRIIb; 2b; not shown: His tag at the C terminus
T1 sequence (looked up): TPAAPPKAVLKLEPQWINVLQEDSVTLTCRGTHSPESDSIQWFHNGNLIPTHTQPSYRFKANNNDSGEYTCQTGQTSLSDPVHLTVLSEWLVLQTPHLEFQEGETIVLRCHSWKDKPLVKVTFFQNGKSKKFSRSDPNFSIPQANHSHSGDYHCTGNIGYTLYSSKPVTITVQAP

B1: GpH7-B3 variant S239_10E/GpL16-k0 (homodimerized antibody, Ho Ab) (antibody, human IgG1, kappa)
heavy: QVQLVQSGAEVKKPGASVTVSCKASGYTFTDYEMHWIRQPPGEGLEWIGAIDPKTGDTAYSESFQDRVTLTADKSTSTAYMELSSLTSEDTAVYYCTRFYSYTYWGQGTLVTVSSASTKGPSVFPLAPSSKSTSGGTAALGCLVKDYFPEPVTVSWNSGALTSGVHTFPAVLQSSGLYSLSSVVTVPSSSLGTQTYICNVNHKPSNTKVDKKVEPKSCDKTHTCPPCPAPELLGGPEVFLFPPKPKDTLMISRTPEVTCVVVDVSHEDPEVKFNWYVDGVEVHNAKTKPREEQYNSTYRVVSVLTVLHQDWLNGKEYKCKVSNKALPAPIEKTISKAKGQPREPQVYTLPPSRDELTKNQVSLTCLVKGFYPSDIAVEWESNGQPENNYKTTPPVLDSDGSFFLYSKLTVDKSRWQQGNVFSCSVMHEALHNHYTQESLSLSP
light: DIVMTQSPLSLPVTPGEPASISCQASESLVHSNRNTYLHWYLQKPGQSPQLLIYKVSNRFSGVPDRFSGSGSGTDFTLKISRVEAEDVGVYYCSQNTHVPPTFGQGTKVEIERTVAAPSVFIFPPSDEQLKSGTASVVCLLNNFYPREAKVQWKVDNALQSGNSQESVTEQDSKDSTYSLSSTLTLSKADYEKHKVYACEVTHQGLSSPVTKSFNRGEC
notes: Mutation in both H chains; also called S239_10E Ho Ab
B2: GpH7-B3 variant Y296_20W/GpL16-k0 (homodimerized antibody, Ho Ab) (antibody, human IgG1, kappa)
heavy: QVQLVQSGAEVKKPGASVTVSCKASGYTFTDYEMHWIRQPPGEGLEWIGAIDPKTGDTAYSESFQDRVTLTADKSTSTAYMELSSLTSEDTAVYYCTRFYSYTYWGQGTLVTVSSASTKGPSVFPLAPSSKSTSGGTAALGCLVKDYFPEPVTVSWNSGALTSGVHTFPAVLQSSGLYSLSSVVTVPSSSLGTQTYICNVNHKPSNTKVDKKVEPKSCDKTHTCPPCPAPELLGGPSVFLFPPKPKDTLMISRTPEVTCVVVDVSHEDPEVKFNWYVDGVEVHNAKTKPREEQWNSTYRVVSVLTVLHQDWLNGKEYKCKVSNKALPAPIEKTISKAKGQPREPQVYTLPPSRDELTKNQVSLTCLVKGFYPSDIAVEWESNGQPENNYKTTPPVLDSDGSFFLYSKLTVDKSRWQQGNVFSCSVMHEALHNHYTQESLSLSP
light: B1 light
notes: Mutation in both H chains; also called Y296_20W Ho Ab
B3: GpH7-B3 variant S324_14T/GpL16-k0 (homodimerized antibody, Ho Ab) (antibody, human IgG1, kappa)
heavy: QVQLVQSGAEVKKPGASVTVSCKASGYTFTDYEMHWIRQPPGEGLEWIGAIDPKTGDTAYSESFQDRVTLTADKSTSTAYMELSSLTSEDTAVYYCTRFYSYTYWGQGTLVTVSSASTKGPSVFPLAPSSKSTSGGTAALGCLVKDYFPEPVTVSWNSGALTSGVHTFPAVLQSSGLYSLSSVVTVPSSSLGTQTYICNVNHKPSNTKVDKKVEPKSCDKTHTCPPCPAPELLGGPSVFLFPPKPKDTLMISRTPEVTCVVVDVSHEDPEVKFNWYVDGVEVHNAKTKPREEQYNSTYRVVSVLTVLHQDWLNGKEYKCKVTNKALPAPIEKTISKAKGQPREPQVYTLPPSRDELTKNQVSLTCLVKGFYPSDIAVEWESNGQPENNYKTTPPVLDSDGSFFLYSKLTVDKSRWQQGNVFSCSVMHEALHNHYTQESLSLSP
light: B1 light
notes: Mutation in both H chains; also called S324_14T Ho Ab
B4: GpH7-B3 variant T335_09D/GpL16-k0 (homodimerized antibody, Ho Ab) (antibody, human IgG1, kappa)
heavy: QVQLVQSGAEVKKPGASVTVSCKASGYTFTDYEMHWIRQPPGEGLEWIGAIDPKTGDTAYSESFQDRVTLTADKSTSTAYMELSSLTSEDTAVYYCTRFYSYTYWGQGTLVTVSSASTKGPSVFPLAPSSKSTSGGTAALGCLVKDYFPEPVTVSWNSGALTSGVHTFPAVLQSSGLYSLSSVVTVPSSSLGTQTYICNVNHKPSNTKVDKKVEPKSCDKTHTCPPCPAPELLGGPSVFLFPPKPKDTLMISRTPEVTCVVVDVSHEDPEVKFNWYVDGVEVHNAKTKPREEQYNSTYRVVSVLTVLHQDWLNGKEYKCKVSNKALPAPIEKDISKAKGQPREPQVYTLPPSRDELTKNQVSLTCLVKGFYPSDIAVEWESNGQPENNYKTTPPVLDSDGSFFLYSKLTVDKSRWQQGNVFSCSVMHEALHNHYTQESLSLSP
light: B1 light
notes: Mutation in both H chains; also called T335_09D Ho Ab
B5: GpH7-B3 variant T335_06M/GpL16-k0 (homodimerized antibody, Ho Ab) (antibody, human IgG1, kappa)
heavy: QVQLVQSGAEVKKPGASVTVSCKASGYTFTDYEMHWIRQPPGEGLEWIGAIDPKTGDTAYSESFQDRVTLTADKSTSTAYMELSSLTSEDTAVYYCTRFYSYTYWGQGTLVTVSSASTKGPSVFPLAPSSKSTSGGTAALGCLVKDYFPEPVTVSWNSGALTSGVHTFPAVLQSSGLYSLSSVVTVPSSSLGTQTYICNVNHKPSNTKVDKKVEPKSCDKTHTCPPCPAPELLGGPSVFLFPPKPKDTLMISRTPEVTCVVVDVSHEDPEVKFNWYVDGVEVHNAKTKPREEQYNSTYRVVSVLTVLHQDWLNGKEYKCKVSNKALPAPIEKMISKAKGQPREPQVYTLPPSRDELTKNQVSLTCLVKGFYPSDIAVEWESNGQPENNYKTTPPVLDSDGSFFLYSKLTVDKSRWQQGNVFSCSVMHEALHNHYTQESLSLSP
light: B1 light
notes: Mutation in both H chains; also called T335_06M Ho Ab
B6: GpH7-B3 variant S337_16H/GpL16-k0 (homodimerized antibody, Ho Ab) (antibody, human IgG1, kappa)
heavy: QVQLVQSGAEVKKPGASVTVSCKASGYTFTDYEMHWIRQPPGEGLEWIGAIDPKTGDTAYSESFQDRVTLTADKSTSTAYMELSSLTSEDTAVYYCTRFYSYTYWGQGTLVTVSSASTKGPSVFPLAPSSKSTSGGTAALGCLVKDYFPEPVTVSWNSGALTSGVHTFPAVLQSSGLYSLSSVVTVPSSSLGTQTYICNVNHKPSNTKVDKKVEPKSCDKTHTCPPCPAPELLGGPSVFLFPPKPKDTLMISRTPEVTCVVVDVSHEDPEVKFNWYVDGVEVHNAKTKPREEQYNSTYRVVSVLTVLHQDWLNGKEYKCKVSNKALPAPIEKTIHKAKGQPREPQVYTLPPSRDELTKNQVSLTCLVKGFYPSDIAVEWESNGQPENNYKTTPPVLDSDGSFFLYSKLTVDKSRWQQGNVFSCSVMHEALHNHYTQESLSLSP
light: B1 light
notes: Mutation in both H chains; also called S337_16H Ho Ab
B7: GpH7-B3 variant S324_06M/GpL16-k0 (homodimerized antibody, Ho Ab) (antibody, human IgG1, kappa)
heavy: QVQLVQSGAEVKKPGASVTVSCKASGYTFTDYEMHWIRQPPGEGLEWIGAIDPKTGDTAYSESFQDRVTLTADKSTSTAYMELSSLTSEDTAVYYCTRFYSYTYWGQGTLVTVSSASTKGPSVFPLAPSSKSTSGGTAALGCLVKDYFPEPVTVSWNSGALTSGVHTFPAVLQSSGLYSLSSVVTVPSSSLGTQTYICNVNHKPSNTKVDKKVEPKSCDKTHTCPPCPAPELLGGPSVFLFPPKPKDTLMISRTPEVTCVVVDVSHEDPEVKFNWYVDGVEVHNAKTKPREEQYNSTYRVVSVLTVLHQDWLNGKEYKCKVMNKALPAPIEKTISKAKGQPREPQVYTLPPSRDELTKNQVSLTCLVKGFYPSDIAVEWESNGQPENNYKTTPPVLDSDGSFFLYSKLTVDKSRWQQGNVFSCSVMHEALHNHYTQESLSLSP
light: B1 light
notes: Mutation in both H chains; also called S324_06M Ho Ab
B8: GpH7-B3 variant T335_05P/GpL16-k0 (homodimerized antibody, Ho Ab) (antibody, human IgG1, kappa)
heavy: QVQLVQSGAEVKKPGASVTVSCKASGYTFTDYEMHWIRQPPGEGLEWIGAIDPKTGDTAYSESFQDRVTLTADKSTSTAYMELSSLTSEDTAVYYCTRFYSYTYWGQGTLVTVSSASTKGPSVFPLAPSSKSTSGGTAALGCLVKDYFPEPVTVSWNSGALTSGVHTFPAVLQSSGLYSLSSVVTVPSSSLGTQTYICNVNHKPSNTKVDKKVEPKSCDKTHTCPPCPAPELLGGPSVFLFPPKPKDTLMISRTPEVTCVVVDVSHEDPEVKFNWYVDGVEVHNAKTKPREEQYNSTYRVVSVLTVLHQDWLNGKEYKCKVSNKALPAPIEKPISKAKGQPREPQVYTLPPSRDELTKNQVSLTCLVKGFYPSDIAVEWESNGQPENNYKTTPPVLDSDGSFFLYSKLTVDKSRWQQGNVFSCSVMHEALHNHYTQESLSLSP
light: B1 light
notes: Mutation in both H chains; also called T335_05P Ho Ab
B9: GpH7-B3 variant T335_08L/GpL16-k0 (homodimerized antibody, Ho Ab) (antibody, human IgG1, kappa)
heavy: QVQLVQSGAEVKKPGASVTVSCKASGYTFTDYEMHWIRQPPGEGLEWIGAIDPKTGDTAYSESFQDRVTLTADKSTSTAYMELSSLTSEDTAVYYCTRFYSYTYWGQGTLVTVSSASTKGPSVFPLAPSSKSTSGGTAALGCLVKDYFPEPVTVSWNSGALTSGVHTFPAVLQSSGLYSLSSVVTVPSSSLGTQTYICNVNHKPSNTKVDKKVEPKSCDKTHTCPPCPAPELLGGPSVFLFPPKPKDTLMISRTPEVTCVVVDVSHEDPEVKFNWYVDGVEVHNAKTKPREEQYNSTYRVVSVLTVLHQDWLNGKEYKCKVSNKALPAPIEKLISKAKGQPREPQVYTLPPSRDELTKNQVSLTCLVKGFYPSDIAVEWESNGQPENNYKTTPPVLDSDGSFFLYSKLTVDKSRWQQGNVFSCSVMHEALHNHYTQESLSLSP
light: B1 light
notes: Mutation in both H chains; also called T335_08L Ho Ab
B10: GpH7-B3 variant S298_03V/GpL16-k0 (homodimerized antibody, Ho Ab) (antibody, human IgG1, kappa)
heavy: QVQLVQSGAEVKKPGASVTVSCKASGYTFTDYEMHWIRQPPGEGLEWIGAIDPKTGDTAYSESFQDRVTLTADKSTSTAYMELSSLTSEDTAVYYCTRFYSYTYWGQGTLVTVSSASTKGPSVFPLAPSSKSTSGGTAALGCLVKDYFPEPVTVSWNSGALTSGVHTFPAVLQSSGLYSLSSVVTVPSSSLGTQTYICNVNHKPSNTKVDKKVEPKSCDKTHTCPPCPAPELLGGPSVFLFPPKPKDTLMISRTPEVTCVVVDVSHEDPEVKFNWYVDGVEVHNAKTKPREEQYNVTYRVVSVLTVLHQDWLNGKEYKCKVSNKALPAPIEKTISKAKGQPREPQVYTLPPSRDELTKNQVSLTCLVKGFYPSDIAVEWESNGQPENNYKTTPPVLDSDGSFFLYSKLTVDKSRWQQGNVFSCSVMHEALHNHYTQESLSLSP
light: B1 light
notes: Mutation in both H chains; also called S298_03V Ho Ab
B11: GpH7-B3 variant Y300_08L/GpL16-k0 (homodimerized antibody, Ho Ab) (antibody, human IgG1, kappa)
heavy: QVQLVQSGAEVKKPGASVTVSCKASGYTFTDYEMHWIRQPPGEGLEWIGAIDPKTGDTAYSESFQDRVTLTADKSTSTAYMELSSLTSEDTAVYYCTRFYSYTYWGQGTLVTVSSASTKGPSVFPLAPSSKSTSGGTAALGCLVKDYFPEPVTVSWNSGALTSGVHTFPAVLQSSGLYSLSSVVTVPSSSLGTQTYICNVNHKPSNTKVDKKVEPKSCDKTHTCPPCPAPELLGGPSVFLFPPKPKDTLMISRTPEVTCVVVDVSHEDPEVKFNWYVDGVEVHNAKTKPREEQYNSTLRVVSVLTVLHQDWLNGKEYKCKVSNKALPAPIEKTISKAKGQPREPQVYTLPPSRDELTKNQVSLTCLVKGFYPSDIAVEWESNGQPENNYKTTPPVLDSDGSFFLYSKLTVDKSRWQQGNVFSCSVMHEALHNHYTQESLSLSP
light: B1 light
notes: Mutation in both H chains; also called Y300_08L Ho Ab
B12: GpH7-B3 variant S337_01G/GpL16-k0 (homodimerized antibody, Ho Ab) (antibody, human IgG1, kappa)
heavy: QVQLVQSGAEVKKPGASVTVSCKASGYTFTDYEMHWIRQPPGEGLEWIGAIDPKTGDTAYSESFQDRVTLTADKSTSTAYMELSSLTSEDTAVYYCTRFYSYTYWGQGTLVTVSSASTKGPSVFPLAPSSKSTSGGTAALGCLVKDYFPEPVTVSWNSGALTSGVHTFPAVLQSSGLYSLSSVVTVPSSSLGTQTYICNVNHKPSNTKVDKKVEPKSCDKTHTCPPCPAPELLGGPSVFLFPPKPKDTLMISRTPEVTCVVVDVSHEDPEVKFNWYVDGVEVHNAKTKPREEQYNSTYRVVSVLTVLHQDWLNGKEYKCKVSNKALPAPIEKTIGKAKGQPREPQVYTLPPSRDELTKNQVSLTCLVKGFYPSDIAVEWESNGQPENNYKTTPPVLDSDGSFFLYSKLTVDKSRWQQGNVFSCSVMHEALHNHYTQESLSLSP
light: B1 light
notes: Mutation in both H chains; also called S337_01G Ho Ab
B13: GpH7-A5/GpH7-B3 variant P331_04F/GpL16-k0 (antibody, human IgG1, kappa)
heavy 1: not shown
heavy 2: not shown
light: B1 light
notes: heterodimerized IgG1; alteration in the GpH7-B3 H chain only; also called He Ab
B14: GpH7-A5/GpH7-B3 variant P331_15Y/GpL16-k0 (antibody, human IgG1, kappa)
heavy 1: not shown
heavy 2: not shown
light: B1 light
notes: as for B13
B15: GpH7-A5/GpH7-B3 variant S324_06M/GpL16-k0 (antibody, human IgG1, kappa)
heavy 1: not shown
heavy 2: not shown
light: B1 light
notes: as for B13
B16: GpH7-A5/GpH7-B3 variant P331_07I/GpL16-k0 (antibody, human IgG1, kappa)
heavy 1: not shown
heavy 2: not shown
light: B1 light
notes: as for B13
B17: GpH7-A5/GpH7-B3 variant P331_10E/GpL16-k0 (antibody, human IgG1, kappa)
heavy 1: not shown
heavy 2: not shown
light: B1 light
notes: as for B13
B18: GpH7-A5/GpH7-B3 variant P331_06M/GpL16-k0 (antibody, human IgG1, kappa)
heavy 1: not shown
heavy 2: not shown
light: B1 light
notes: as for B13
B19: GpH7-A5/GpH7-B3 variant N325_09D/GpL16-k0 (antibody, human IgG1, kappa)
heavy 1: not shown
heavy 2: not shown
light: B1 light
notes: as for B13
B20: GpH7-A5/GpH7-B3 variant A327_18N/GpL16-k0 (antibody, human IgG1, kappa)
heavy 1: not shown
heavy 2: not shown
light: B1 light
notes: as for B13

Target: T2, FcγRIIIa extracellular domain with C-terminal His tag (human, UniProt P08637 17-208)
T2 construct: extracellular domain; also called 3a; FcgRIIIa
Experiment: SPR (Biacore), antibody captured on antigen-peptide chip, FcγR analyte, relative binding

T2 sequence (P08637 17-208): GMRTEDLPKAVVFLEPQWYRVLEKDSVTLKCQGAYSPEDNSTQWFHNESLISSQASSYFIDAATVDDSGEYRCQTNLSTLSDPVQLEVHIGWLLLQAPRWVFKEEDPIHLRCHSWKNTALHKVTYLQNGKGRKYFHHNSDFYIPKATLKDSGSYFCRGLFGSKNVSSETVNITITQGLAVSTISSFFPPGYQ

Ho/Con_3a	Binder
252 % of GpH7-B3/GpL16-k0 (=100)	B1
146 % of GpH7-B3/GpL16-k0 (=100)	B2
108 % of GpH7-B3/GpL16-k0 (=100)	B3
114 % of GpH7-B3/GpL16-k0 (=100)	B4
107 % of GpH7-B3/GpL16-k0 (=100)	B5
112 % of GpH7-B3/GpL16-k0 (=100)	B6
114 % of GpH7-B3/GpL16-k0 (=100)	B7
119 % of GpH7-B3/GpL16-k0 (=100)	B8
103 % of GpH7-B3/GpL16-k0 (=100)	B9
110 % of GpH7-B3/GpL16-k0 (=100)	B10
105 % of GpH7-B3/GpL16-k0 (=100)	B11
108 % of GpH7-B3/GpL16-k0 (=100)	B12

Target: T3, FcγRIa (human, UniProt P12314 16-292)
T3 construct: extracellular domain; also called FcgRI; 1a; not shown: His tag at the C terminus
Experiment: SPR (Biacore), antibody captured, FcγR as analyte; binding as % of GpH7-A5/GpH7-B3/GpL16-k0

T3 sequence (P12314 16-292): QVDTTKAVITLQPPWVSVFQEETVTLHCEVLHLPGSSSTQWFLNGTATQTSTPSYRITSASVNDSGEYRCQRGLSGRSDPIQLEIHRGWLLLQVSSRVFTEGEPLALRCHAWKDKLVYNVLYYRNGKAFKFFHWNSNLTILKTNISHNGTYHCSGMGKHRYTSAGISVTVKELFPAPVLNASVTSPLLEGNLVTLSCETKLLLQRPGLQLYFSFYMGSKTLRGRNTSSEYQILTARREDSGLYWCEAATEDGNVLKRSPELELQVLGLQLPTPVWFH

He/Con_1a	Binder
95.5 % of control	B13
96 % of control	B14
99.2 % of control	B15
93.4 % of control	B16
95 % of control	B17
93.6 % of control	B18
99.9 % of control	B19
97.7 % of control	B20

Target: T1, FcγRIIb
Experiment: as above

He/Con_2b	Binder
110 % of control	B13
114 % of control	B14
112 % of control	B15
114 % of control	B16
116 % of control	B17
102 % of control	B18
124 % of control	B19
113 % of control	B20
